Experimental findings from patent US20250376536A1 (Bristol-Myers Squibb, published 2025) are described below.

One assay deals with T1, human CD40 on cells (human, UniProt P25942 21-277).
T1 construct: Endogenous CD40 on human primary cells and Raji cells; also called CD40-positive macrophage; CD40-positive B cell
The assay is described as follows: binding to human CD40-positive macrophages.

In a further assay the target is T2, human FAP protein (human, UniProt Q12884 26-760).
T2 sequence: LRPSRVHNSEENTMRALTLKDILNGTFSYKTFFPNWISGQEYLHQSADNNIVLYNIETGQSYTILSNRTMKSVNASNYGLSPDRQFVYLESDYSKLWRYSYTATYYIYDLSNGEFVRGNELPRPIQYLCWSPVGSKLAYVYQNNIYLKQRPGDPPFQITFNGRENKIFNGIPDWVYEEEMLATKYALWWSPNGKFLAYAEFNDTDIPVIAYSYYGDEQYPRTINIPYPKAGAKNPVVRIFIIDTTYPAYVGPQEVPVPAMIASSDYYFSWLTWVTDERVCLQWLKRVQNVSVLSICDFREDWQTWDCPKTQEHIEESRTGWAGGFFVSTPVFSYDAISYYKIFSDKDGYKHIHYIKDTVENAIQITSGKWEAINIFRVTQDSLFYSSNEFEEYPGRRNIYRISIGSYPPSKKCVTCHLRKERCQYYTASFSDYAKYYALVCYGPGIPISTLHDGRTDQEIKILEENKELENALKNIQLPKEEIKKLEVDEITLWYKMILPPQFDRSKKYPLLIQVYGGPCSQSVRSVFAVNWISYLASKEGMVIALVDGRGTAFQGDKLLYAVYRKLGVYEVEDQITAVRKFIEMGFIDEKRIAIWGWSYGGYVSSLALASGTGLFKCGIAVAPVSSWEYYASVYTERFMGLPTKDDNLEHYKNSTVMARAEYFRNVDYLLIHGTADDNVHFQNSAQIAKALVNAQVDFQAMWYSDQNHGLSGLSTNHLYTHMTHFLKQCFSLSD
The assay is described as follows: SPR. As to the method:
(§1) CD40.9H3×FAP.LP62 and an analog of RO7300490 (see SEQ ID NOs: 39-42) binding to human and cynomolgus (cyno) CD40 and FAP was evaluated by surface plasmon resonance (SPR) using human and cyno CD40 and FAP proteins. […] The rates of association and dissociation of CD40.9H3×FAP.LP62 and the analog of RO7300490 to human CD40 and FAP are summarized in Table 2.

The target in assay [1] is T3, cynomolgus (cyno) FAP protein (cynomolgus monkey).
T3 chain: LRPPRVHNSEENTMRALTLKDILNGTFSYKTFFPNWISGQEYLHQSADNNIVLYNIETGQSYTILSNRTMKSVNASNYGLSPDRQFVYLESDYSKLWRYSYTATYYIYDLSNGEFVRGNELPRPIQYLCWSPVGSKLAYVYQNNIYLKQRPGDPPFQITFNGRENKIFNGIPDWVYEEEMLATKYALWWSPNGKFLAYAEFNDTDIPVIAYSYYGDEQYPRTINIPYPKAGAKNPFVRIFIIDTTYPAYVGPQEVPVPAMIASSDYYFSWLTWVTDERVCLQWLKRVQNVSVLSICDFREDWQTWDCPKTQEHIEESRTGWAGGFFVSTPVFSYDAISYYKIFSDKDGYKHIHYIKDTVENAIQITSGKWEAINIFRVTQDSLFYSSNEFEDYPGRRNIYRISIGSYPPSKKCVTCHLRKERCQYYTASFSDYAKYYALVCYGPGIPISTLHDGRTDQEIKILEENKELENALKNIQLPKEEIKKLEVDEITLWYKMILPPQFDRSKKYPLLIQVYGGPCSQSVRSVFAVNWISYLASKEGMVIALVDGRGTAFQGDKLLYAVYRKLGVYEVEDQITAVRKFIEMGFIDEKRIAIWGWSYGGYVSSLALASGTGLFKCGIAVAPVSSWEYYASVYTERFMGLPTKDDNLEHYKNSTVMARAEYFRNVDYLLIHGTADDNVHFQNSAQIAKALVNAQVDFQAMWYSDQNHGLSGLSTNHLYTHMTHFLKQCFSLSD
The assay is described as follows: SPR. As for the experimental part: as §1

Assay [2] concerns the target cynomolgus (cyno) CD40 protein (cynomolgus monkey, UniProt G7PG38 21-193). The assay is described as follows: SPR. As for the experimental part:
as §1

Another assay deals with T4, human CD40 protein (human, UniProt P25942 21-193).
T4 construct: Protein used in SPR
T4 sequence (P25942 21-193 limits assumed): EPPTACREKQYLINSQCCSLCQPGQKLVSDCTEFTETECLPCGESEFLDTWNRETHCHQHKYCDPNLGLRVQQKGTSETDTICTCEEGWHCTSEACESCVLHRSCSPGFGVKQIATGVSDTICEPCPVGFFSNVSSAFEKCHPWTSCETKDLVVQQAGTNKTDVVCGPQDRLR
The assay is described as follows: SPR. As for the experimental part: as §1

The next assay addresses T5, soluble FAP (human, UniProt Q12884 26-760, limits assumed).
T5 sequence: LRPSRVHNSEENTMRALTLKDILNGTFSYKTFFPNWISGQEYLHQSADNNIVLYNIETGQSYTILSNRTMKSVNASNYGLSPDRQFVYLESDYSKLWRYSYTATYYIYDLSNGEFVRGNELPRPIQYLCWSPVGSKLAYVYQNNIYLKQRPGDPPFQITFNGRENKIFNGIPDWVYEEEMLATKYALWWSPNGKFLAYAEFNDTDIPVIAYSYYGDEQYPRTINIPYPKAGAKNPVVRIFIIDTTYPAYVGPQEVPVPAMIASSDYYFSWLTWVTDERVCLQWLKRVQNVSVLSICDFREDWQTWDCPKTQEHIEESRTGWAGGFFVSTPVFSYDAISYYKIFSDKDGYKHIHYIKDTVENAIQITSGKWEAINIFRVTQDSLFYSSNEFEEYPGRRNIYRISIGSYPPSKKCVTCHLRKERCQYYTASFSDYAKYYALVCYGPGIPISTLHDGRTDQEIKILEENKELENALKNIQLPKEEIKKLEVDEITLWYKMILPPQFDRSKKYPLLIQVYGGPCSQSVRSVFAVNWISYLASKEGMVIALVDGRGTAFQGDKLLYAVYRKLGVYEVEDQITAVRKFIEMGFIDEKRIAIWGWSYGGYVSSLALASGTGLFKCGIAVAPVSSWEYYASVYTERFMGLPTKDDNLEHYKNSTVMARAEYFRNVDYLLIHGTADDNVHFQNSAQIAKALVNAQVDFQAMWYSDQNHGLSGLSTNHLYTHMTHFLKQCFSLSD
The assay is described as follows: cell-based or functional assay.

For the next assay, the target named is T6, human FAP on cells (human, UniProt Q12884 1-760).
T6 sequence: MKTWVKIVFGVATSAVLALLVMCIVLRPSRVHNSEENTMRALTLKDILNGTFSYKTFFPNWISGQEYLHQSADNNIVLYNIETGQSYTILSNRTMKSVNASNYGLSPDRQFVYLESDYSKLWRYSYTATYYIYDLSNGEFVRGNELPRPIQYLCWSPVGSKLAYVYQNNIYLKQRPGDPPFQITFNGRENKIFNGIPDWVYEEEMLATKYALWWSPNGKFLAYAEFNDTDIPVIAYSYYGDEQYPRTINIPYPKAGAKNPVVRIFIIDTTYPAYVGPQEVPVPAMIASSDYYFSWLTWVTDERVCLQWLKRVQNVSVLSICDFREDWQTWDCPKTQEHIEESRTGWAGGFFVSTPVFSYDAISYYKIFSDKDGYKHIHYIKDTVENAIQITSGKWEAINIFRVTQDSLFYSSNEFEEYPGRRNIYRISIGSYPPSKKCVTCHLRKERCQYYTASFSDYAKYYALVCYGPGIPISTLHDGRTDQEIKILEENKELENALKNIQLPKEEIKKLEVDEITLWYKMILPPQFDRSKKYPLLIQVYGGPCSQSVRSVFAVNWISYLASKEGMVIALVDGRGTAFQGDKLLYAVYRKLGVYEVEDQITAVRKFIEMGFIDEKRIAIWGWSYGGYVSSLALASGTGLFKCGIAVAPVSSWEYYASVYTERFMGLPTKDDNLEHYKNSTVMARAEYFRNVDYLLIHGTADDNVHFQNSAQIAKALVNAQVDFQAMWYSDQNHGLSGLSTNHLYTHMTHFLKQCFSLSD
The assay is described as follows: cell-based or functional assay.

The target of the next assay is T7, cyno FAP on HEK cells (cynomolgus monkey).
T7 construct: whole, on cells; also called Cyno FAP-positive HEK cells
The assay is described as follows: binding to cyno FAP-positive HEK cells.

T1 sequence (P25942 21-277): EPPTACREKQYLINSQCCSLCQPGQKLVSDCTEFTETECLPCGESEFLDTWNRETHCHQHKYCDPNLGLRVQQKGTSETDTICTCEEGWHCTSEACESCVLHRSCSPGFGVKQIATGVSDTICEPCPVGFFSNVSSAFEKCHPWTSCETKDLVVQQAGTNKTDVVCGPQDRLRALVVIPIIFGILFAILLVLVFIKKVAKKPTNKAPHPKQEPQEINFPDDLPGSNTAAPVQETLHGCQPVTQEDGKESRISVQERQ

B1: CD40.9H3×FAP.LP62 bispecific antibody (bispecific antibody, human IgG1, kappa, L234A L235A)
heavy 1: EVQLVESGGGLVQPGGSLRLSCAASGFTFIGYSMNWVRQAPGKGLEWVSYISSYESTIYYADSVKGRFTISRDNAKNSLYLQMNSLRAEDTAVYYCARSRITLVRGVPRYFDLWGRGTLVTVSSASTKGPSVFPLAPSSKSTSGGTAALGCLVKDYFPEPVTVSWNSGALTSGVHTFPAVLQSSGLYSLSSVVTVPSSSLGTQTYICNVNHKPSNTKVDKKVEPKSCDKTHTCPPCPAPEAAGGPSVFLFPPKPKDTLMISRTPEVTCVVVSVSHEDPEVKFNWYVDGVEVHNAKTKPREEQYNSTYRVVSVLTVLHQDWLNGKEYKCKVSNKALPAPIEKTISKAKGQPREPQVYVLPPSREEMTKNQVSLLCLVKGFYPSDIAVEWESNGQPENNYLTWPPVLDSDGSFFLYSKLTVDKSRWQQGNVFSCSVMHEALHNHYTQKSLSLSPG
heavy 2: EVQLVESGGGLVQPGGSLRLSCAASGFTFIGYSMNWVRQAPGKGLEWVSYISSYESTIYYADSVKGRFTISRDNAKNSLYLQMNSLRAEDTAVYYCARSRITLVRGVPRYFDLWGRGTLVTVSSASTKGPSVFPLAPSSKSTSGGTAALGCLVKDYFPEPVTVSWNSGALTSGVHTFPAVLQSSGLYSLSSVVTVPSSSLGTQTYICNVNHKPSNTKVDKKVEPKSCDKTHTCPPCPAPEAAGGPSVFLFPPKPKDTLMISRTPEVTCVVVSVSHEDPEVKFNWYVDGVEVHNAKTKPREEQYNSTYRVVSVLTVLHQDWLNGKEYKCKVSNKALPAPIEKTISKAKGQPREPQVYVYPPSREEMTKNQVSLTCLVKGFYPSDIAVEWESNGQPENNYKTTPPVLDSDGSFALVSKLTVDKSRWQQGNVFSCSVMHEALHNHYTQKSLSLSPGGGSGGGGSGGGGSGGGGSEVQLLESGGGLVQPGGSLRLSCAASGFTFSSRGMSWVRQAPGKCLEWVSFISSSGTYVYYADSVKGRFTISRDNSKNTLYLQMNSLRAEDTAVYYCARDLPRTGVYFGMDVWGQGTTVTVSSGGGGSGGGGSGGGGSGGGGSDIQMTQSPSSLSASVGDRVTITCRASQSIFNYLNWYQQKPGKAPKLLIYGASTLQSGVPSRFSGSGSGTDFTLTISSLQPEDFATYYCQESYSTPYTFGCGTKVEIK
light: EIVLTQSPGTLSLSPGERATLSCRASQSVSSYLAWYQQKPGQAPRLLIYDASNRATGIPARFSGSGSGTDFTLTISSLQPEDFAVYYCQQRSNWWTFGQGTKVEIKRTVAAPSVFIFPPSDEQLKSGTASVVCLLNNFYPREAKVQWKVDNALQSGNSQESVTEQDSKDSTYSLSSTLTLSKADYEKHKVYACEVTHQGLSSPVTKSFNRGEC
notes: 2+1 format: two anti-CD40 9H3 Fabs on an IgG1 Fc with L234A, L235A, D265S and heterodimerization mutations; Ratio 1:1:2
For B1, the EC50 in the assay with human CD40 on cells turned out to be 11.9 nM. In the assay with human FAP protein, this molecule had an equilibrium dissociation constant (Kd) of 1.96 nM, a koff of 0.00147 s⁻¹ and a kon of 750000 M⁻¹ s⁻¹. In assay [1], this molecule came in with a Kd of 5.6 nM, a koff of 0.00276 s⁻¹ and a kon of 500000 M⁻¹ s⁻¹. Also, in assay [2], the affinity, expressed as Kd, was 97 nM; the koff was 0.0052 s⁻¹; the kon is 53000 M⁻¹ s⁻¹. Also, in the assay with human CD40 protein, binding was characterised by a dissociation constant (Kd) of 92 nM, the koff was 0.0052 s⁻¹ and the kon came out at 57000 M⁻¹ s⁻¹. In the assay with soluble FAP, the “fold reduction in potency of IL12p40 secretion with 120 ng/mL soluble FAP” value was determined as 4.2 fold and the “fold reduction in potency of IL12p40 secretion with 480 ng/mL soluble FAP” value came to 7.5 fold. Further, in the assay with human FAP on cells, the “IL12p40 secretion, human DC + HFF1 co-culture, EC50” value was 0.079 nM and the “TNFα release, CD40-positive macrophages + HFF1 co-culture, EC50” value came to 0.12 nM. Also, in the assay with cyno FAP on HEK cells, the EC50 was 3.6 nM.
